Literature values, collected in US20060122098A1, “System for infusing insulin to a subject to imporve impaired total body tissue glucose processing” (priority 2004, published 2006).

Conditions: in vivo

insulin
half-life: 5 min
